We go through two molecules from patent publication US20050266009A1 (SAVIENT PHARMACEUTICALS, published 2005).

The target in one assay is T1, GPIb on human platelets (human, UniProt P07359 17-652).
T1 construct: whole, on cells; also called GPIbα; platelet GPIb
As to the kind of experiment: FACS on human platelets.

Assay [1] addresses T2, GPIb on guinea pig platelets (guinea pig).
T2 construct: whole, on cells; also called guinea pig derived platelets
As to the kind of experiment: FACS on guinea pig platelets.

T1 sequence (P07359 17-652): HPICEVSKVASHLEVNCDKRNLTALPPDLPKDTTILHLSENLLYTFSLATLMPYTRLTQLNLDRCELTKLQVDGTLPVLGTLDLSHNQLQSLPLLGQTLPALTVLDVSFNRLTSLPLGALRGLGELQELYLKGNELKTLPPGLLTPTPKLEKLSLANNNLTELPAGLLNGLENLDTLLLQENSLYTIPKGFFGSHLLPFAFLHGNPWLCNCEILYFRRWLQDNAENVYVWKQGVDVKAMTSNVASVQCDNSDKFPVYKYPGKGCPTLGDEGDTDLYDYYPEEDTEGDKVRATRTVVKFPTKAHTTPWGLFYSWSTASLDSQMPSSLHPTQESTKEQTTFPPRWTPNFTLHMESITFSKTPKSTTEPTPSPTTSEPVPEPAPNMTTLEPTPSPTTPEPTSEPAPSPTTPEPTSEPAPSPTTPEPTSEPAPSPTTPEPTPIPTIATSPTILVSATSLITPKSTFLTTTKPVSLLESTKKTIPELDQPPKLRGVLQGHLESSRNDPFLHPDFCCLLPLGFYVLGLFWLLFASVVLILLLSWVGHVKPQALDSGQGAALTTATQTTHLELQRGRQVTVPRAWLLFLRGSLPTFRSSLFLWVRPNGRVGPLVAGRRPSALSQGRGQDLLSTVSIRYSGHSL

B1: S1 scFv (scFv)
chain: EVQLVESGGGVVRPGGSLRLSCAASGFTFDLNPKVKHMWVRQAPGKGLEWVSGINWNGGSTGYADSVKGRFTISRDNAKNSLYLQMNSLRAEDTAVYYCARLRPPFLWGQGTLVTVSRGGGGSGGGGSGGGGSSELTQDPAVSVALGQTVRITCQGDSLRSYYASWYQQKPGQAPVLVIYGKNNRPSGIPDRFSGSSSGNTASLTITGAQAEDEADYYCNSRDSSGNHVVFGGGTKLTVLGAAAEQKLISEEDLNGAA
In the case of B1, the “fold binding capacity relative to Y1” value in the assay with GPIb on human platelets is approximately 25 fold.

B2: D1 scFv (scFv)
scFv: EVQLVESGGGVVRPGGSLRLSCAASGFTFDLNPKVKHMWVRQAPGKGLEWVSGINWNGGSTGYADSVKGRFTISRDNAKNSLYLQMNSLRAEDTAVYYCARLRSPFGWGQGTLVTVSRGGGGSGGGGSGGGGSSELTQDPAVSVALGQTVRITCQGDSLRSYYASWYQQKPGQAPVLVIYGKNNRPSGIPDRFSGSSSGNTASLTITGAQAEDEADYYCNSRDSSGNHVVFGGGTKLTVLGAAAEQKLISEEDLNGAA
As to B2, the “fold binding capacity relative to Y1” value in assay [1] was approximately 25 fold.
